Reference: US20230192794A1

Biological target: IL10Rβ on human cell lines (HT-29, HEK-293T) (human (cells stated as human)) (UniProt Q08334)
Test: cell-based or functional assay

Sequence of IL10Rβ on human cell lines (HT-29, HEK-293T) (human (cells stated as human)) (Q08334 20-325): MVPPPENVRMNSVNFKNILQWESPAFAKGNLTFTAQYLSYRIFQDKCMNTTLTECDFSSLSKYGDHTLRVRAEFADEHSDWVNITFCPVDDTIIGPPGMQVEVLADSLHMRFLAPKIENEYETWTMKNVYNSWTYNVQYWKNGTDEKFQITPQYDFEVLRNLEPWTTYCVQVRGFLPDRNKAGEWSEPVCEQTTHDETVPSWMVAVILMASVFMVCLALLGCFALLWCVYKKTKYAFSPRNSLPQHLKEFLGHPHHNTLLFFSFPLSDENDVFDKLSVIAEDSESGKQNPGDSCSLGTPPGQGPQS

Emax for STAT1 (phospho-Y701-STAT1) in HT-29 cells, phospho-flow (% of the WT IL-22 Emax): 30
Emax for STAT3 (phospho-Y705-STAT3) in HT-29 cells, phospho-flow (% of the WT IL-22 Emax): 100
Substance: 22-B3 (mouse IL-22 S45E/Q116A/K124A/Q128A) (from UniProt Q9JJY9 34-179) (ligand)
